This note sets out measurements from publication doi:10.1101/2020.10.14.338756.

The target of experiment [1] is BPTI_A16S, displayed on yeast (bovine).
The target in experiment [2] is BPTI_K15A, displayed on yeast (bovine).
In experiment [3] the target is BPTI_K15R, displayed on yeast (bovine).

Bovine trypsin (enzyme): the ΔΔG bind against BPTIWT in experiment [1] was 4.5 kcal/mol; in experiment [2], 11.1 kcal/mol; in experiment [3], -1.4 kcal/mol.
